Read-outs that look alike come from different tables or passages of the source.
B1: Selenomethionine-labelled tagless TipA (residues 26-572) (natural protein, Bdellovibrio bacteriovorus HD100, UniProt Q6MK73 26-572, looked up)
chain: ITDANPQIANKHLMPNAVRVQITQRGMKYFDNRLSDILGNLGVKLDEGYFPAMSYTAEKPINMDDFMDANPEMVKMYQQVRGLLTQWLVGFSMNDHQPTIEIGESGYVAKFSRFGLVTDELLMEALGKRDGAILAIELEVKKLTISTQSVVAWDTQNEFLGKAGFEDVTLQAADEEMPLKIRLPFYLRMNAMGGLEFEALEISNNFDSIPLGLKYGRLIVPQFAVEVNGKKFYVNNAELEKLFQAQAPMILEKVRGSIGDFARTQLPAMLNQKAKEFLGGSLEQVQDMAAPGQEPTDTRPAFKWGLQLQNLNLKKSLNVDLTTYVEDPVNSRSAPVKSHASRGAPTFNAVAQENYDIGLSVDRALINRVLQLAFERRNFEQIKQSDGSVLKLVATPLIDYVKTPAGVAVKPTETFVKLRVSVEIQPGSMFLKKTIVVDFDIIAKLRQLSDKTGMQMLLHSIDTDSLYLDDKYISVAGKLFKGKVREGVKDELKKRSANWATTEESLPGGLPLPPQILGIKLDINRVMMDPNGHLIMYLDYAKTGANK
modifications: selenomethionine-labelled
B2: TipA-His (TULIP invasion protein A, Bd2538, residues 26-572 with C-terminal octa-His tag) (natural protein, Bdellovibrio bacteriovorus HD100, UniProt Q6MK73 26-572, looked up)
chain: B1 chain

Legend:
crystal structure [1] = target: the molecule itself; test: crystal structure
crystal structure [2] = target: the molecule itself; test: crystal structure; remark: listed apart in the source

| Protein | stoichiometry N (crystal structure [1]) | stoichiometry N (crystal structure [2]) |
| --- | --- | --- |
| B1 | 2 | – |
| B2 | – | 2 |
